Data: article PMC9023278

Molecular target: T1, EnrR (crystal) (Edwardsiella piscicida EIB202, UniProt A0AAQ3C0I8 1-90)
T1 sequence: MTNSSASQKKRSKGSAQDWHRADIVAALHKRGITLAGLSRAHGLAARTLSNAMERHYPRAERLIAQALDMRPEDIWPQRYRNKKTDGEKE
Test: X-ray crystallography

B1: DNA1 (dsDNA)
DNA 1: CGAAATATCTATAGATATTTCG
DNA 2: CGAAATATCTATAGATATTTCG
B1: binds.
